The record followed here is publication PMC3716694, “Crystal structure of signal regulatory protein gamma (SIRPγ) in complex with an antibody Fab fragment” (BMC Structural Biology, 2013).

The target in assay [1] is T1, extracellular region of human signal regulatory protein gamma (SIRPγ) (human, UniProt Q9P1W8-1, high-mannose N-glycans (CHO Lec3.2.8.1); in the crystal de-glycosylated with endoglycosidase F1, N-acetylglucosamine modelled at residue 240).
T1 construct: SIRPγ, human, residues 29-347 of NP_061026, three Ig-like domains d1-d3; Glycosylated in the AUC experiments, Endo F1-treated in the crystal; also called SIRPβ2
Kind of assay: AUC; sedimentation equilibrium of SIRPγ: FabOX117 mixtures at 2:1, 1:1 and 1:2, total 1 mg/ml, 15 000, 20 000, 28 000 and 36 000 rpm, fitted to A + B ↔ AB (SEDPHAT), 20 mM Tris-HCl pH 7.5, 200 mM NaCl, 20°C. The conditions noted are these: both partners purified.

Assay [2] addresses T1, extracellular region of human signal …. Description: AUC; sedimentation velocity of SIRPγ: FabOX117 mixtures (2:1 and 1:2), total 1 mg/ml (13.7/6.3 μM), 40 000 rpm, 20 mM Tris-HCl pH 7.5, 200 mM NaCl, 20°C. The conditions noted are these: both partners purified.

T1 sequence (Q9P1W8 29-347): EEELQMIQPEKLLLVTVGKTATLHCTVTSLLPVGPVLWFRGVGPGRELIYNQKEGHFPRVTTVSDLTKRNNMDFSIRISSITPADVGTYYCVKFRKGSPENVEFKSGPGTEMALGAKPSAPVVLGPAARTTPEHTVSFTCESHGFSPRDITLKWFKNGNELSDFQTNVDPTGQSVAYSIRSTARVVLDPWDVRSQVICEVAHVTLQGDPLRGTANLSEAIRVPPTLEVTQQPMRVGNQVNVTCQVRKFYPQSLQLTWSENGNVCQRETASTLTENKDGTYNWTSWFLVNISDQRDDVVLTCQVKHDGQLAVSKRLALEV

B1: Fab fragment of the anti-SIRP monoclonal antibody OX117 (Fab, V domains shown)
VH: EVKLQQSGPELVKPGASVKISCKASGYSFTSYYIHWVKQRPGQGLEWIGWVFPGSGNTKYNEKFKGKATLTADTSSSTAYMQLSSLTSEDSAVYFCARGNYDRAWFAYWGQGTLVTVSA
VL: DIVITQSPKFMSTSVGDRVSITCKASQDVSTAVAWFQQKPGQSPKLLIYSASYRYTGVPDRFTGSGSGTDFTFTISSVQAEDLAVYYCQQHYSTPWTFGGGTKLEIK
notes: Fd region (Vh and CH1 domains) of OX117, 220 residues; light chain of OX117, 214 residues; Recombinant Fab; also called FabOX117; not shown: His6, C-terminal, kept
By Kd is commonly meant a measure of binding affinity in units of concentration. In general, stoichiometry N refers to the number of molecules, sites or subunits per partner or assembly. As to B1, the Kd in assay [1] worked out at 1.2 µM. Also, the “stoichiometry N” value in assay [2] turned out to be 1.
